{"source": "paper PMC12748791", "about": "(Nature Communications, 2025)", "molecular_target": "the molecule itself", "test": "cryo-EM structure; full-length AE1 from DSP-cross-linked human erythrocyte ghost membranes in MSP-1E3D1/POPC nanodiscs; dimer configurations IF1/OF, OF/OF and IF1/IF2 separated by 3D classification", "data": [{"protein": "Anion Exchanger 1 (AE1) (natural protein, human, UniProt P02730 1-911, looked up, N-linked glycosylation at N642; lysines cross-linked with DSP (K539 and K851), Anion exchanger 1 (band 3), human, 911 residues: cytosolic domain 1-347, linker 348-370, transmembrane domain 371-911; the full-length protein was purified, only the transmembrane domain was resolved in the maps; Native protein from red blood cells; held in lipid nanodiscs (MSP-1E3D1, POPC) with PIP2 and POPC lipids at the dimer interface; also called band 3; SLC4A1) MEELQDDYEDMMEENLEQEEYEDPDIPESQMEEPAAHDTEATATDYHTTSHPGTHKVYVELQELVMDEKNQELRWMEAARWVQLEENLGENGAWGRPHLSHLTFWSLLELRRVFTKGTVLLDLQETSLAGVANQLLDRFIFEDQIRPQDREELLRALLLKHSHAGELEALGGVKPAVLTRSGDPSQPLLPQHSSLETQLFCEQGDGGTEGHSPSGILEKIPPDSEATLVLVGRADFLEQPVLGFVRLQEAAELEAVELPVPIRFLFVLLGPEAPHIDYTQLGRAAATLMSERVFRIDAYMAQSRGELLHSLEGFLDCSLVLPPTDAPSEQALLSLVPVQRELLRRRYQSSPAKPDSSFYKGLDLNGGPDDPLQQTGQLFGGLVRDIRRRYPYYLSDITDAFSPQVLAAVIFIYFAALSPAITFGGLLGEKTRNQMGVSELLISTAVQGILFALLGAQPLLVVGFSGPLLVFEEAFFSFCETNGLEYIVGRVWIGFWLILLVVLVVAFEGSFLVRFISRYTQEIFSFLISLIFIYETFSKLIKIFQDHPLQKTYNYNVLMVPKPQGPLPNTALLSLVLMAGTFFFAMMLRKFKNSSYFPGKLRRVIGDFGVPISILIMVLVDFFIQDTYTQKLSVPDGFKVSNSSARGWVIHPLGLRSEFPIWMMFASALPALLVFILIFLESQITTLIVSKPERKMVKGSGFHLDLLLVVGMGGVAALFGMPWLSATTVRSVTHANALTVMGKASTPGAAAQIQEVKEQRISGLLVAVLVGLSILMEPILSRIPLAVLFGIFLYMGVTSLSGIQLFDRILLLFKPPKYHPDVPYVKRVKTWRMHLFTGIQIICLAVLWVVKSTPASLALPFVLILTVPLRRVLLPLIFRNVELQCLDADDAKATFDEEEGRDEYDEVAMPV", "values": [{"measurement": "stoichiometry N", "value": 2}]}]}
